According to patent US20080166806A1, “Attenuated Effector Ligand” (priority 2007, published 2008):

System: Burkitt lymphoma cells
Test: Dose response of FasL ligands on Burkitt lymphoma cells
Format: cell-based
Conditions: dose response over 1 μM to 1 nM, 96 well plate
Description: Dose response over a range of 1 μM to 1 nM is determined for each of the ligands.

| Molecule | rank order of effectiveness |
| --- | --- |
| FasL (protein, UniProt P48023 130-281, looked up, wild-type FasL ligand used as comparator) Tumor necrosis factor ligand …: QIGHPSPPPEKKELRKVAHLTGKSNSRSMPLEWEDTYGIVLLSGVKYKKGGLVINETGLYFVYSKVYFRGQSCNNLPLSHKVYMRNSKYPQDLVMMEGKMMSYCTTGQMWARSSYLGAVFNLTSADHLYVNVSELSLVNFEESQTFFGLYKL | rank order of effectiveness is wild-type, conjugate and mutated FasL |
| FasL (P206R) (protein, UniProt P48023 130-281, looked up, variant P206R) Tumor necrosis factor ligand …: QIGHPSPPPEKKELRKVAHLTGKSNSRSMPLEWEDTYGIVLLSGVKYKKGGLVINETGLYFVYSKVYFRGQSCNNLRLSHKVYMRNSKYPQDLVMMEGKMMSYCTTGQMWARSSYLGAVFNLTSADHLYVNVSELSLVNFEESQTFFGLYKL | rank order of effectiveness is wild-type, conjugate and mutated FasL |
| conjugate: mutated FasL (P206R) conjugated to mouse monoclonal anti-CD20 antibody with SMCC (conjugate, UniProt P48023 130-281, looked up, variant P206R, conjugated via SMCC to mouse anti-CD20 antibody) Tumor necrosis factor ligand …: QIGHPSPPPEKKELRKVAHLTGKSNSRSMPLEWEDTYGIVLLSGVKYKKGGLVINETGLYFVYSKVYFRGQSCNNLRLSHKVYMRNSKYPQDLVMMEGKMMSYCTTGQMWARSSYLGAVFNLTSADHLYVNVSELSLVNFEESQTFFGLYKL | rank order of effectiveness is wild-type, conjugate and mutated FasL |
